Results published in publication PMC12102759 (2025).

B1: SH3BP2 peptide 410-425 (SH3 domain-binding protein 2), 16-mer library wild type / TNKS ANK (TNKS 12 ANK repeats, residues 174-649) (parent complex)
chain 1: LPHLQRSPPDGQSFRS
chain 2: TGVPAVSGALRELLEACRNGDVSRVKRLVDAANVNAKDMAGRKSSPLHFAAGFGRKDVVEHLLQMGANVHARDDGGLIPLHNACSFGHAEVVSLLLCQGADPNARDNWNYTPLHEAAIKGKIDVCIVLLQHGADPNIRNTDGKSALDLADPSAKAVLTGEYKKDELLEAARSGNEEKLMALLTPLNVNCHASDGRKSTPLHLAAGYNRVRIVQLLLQHGADVHAKDKGGLVPLHNACSYGHYEVTELLLKHGACVNAMDLWQFTPLHEAASKNRVEVCSLLLSHGADPTLVNCHGKSAVDMAPTPELRERLTYEFKGHSLLQAAREADLAKVKKTLALEIINFKQPQSHETALHCAVASLHPKRKQVTELLLRKGANVNEKNKDFMTPLHVAAERAHNDVMEVLHKHGAKMNALDTLGQTALHRAALAGHLQTCRLLLSYGSDPSIISLQGFTAAQMGNEAVQQILSESTPIRTSD

Variants of: B1
Test: proteomic peptide phage display deep mutational scan (ProP-PD DMS): M13 P8 16-mer library selected against immobilised GST-tagged bait for four days (rounds), NGS of the eluted pools per day and pseudo-replica; bait immobilised on MaxiSorp plates (10 µg), library pre-cleared on GST, 2 h binding at 4 °C, five washes; one round per day, days 1-4; value from days 2 and 3

Variant | screen value
chain 1 LPHLQRSNPDGQSFRS [chain 1 P8N] | 0.0021 average fractional NGS count over selection days 2 and 3 (reads of this peptide / all reads for the bait, averaged over …
chain 1 LPHLQRSPPDGQSFAS [chain 1 R15A] | 0.000604 average fractional NGS count over selection days 2 and 3 (reads of this peptide / all reads for the bait, averaged over …
chain 1 LPHLQRSPPDGQSFQS [chain 1 R15Q] | 0.000422 average fractional NGS count over selection days 2 and 3 (reads of this peptide / all reads for the bait, averaged over …
chain 1 LPHLQRSPPDGQSFIS [chain 1 R15I] | 0.00013 average fractional NGS count over selection days 2 and 3 (reads of this peptide / all reads for the bait, averaged over …
chain 1 LPHLQRSPPDGQSFPS [chain 1 R15P] | 0.00212 average fractional NGS count over selection days 2 and 3 (reads of this peptide / all reads for the bait, averaged over …
chain 1 LPHLQRSPPDGQSFES [chain 1 R15E] | 0.0203 average fractional NGS count over selection days 2 and 3 (reads of this peptide / all reads for the bait, averaged over …
chain 1 LPHLQRSPPDGQSFLS [chain 1 R15L] | 0.000467 average fractional NGS count over selection days 2 and 3 (reads of this peptide / all reads for the bait, averaged over …
chain 1 LPHLQRSPPDGQSFTS [chain 1 R15T] | 0.00759 average fractional NGS count over selection days 2 and 3 (reads of this peptide / all reads for the bait, averaged over …
chain 1 LPHLQRSPPDGQSFMS [chain 1 R15M] | 0.00237 average fractional NGS count over selection days 2 and 3 (reads of this peptide / all reads for the bait, averaged over …
chain 1 LPHLQRSPPDGQSFNS [chain 1 R15N] | 0.000839 average fractional NGS count over selection days 2 and 3 (reads of this peptide / all reads for the bait, averaged over …
chain 1 LPHLQRSPPDGQSFDS [chain 1 R15D] | 0.000883 average fractional NGS count over selection days 2 and 3 (reads of this peptide / all reads for the bait, averaged over …
chain 1 LPHLQRSPPDGQSFVS [chain 1 R15V] | 0.00361 average fractional NGS count over selection days 2 and 3 (reads of this peptide / all reads for the bait, averaged over …
chain 1 LPHLQRSPPDGQSFKS [chain 1 R15K] | 0.00112 average fractional NGS count over selection days 2 and 3 (reads of this peptide / all reads for the bait, averaged over …
chain 1 APHLQRSPPDGQSFRS [chain 1 L1A] | 0.00143 average fractional NGS count over selection days 2 and 3 (reads of this peptide / all reads for the bait, averaged over …
chain 1 GPHLQRSPPDGQSFRS [chain 1 L1G] | 0.000775 average fractional NGS count over selection days 2 and 3 (reads of this peptide / all reads for the bait, averaged over …
chain 1 SPHLQRSPPDGQSFRS [chain 1 L1S] | 0.00146 average fractional NGS count over selection days 2 and 3 (reads of this peptide / all reads for the bait, averaged over …
chain 1 DPHLQRSPPDGQSFRS [chain 1 L1D] | 0.00232 average fractional NGS count over selection days 2 and 3 (reads of this peptide / all reads for the bait, averaged over …
chain 1 WPHLQRSPPDGQSFRS [chain 1 L1W] | 0.000782 average fractional NGS count over selection days 2 and 3 (reads of this peptide / all reads for the bait, averaged over …
chain 1 IPHLQRSPPDGQSFRS [chain 1 L1I] | 0.00049 average fractional NGS count over selection days 2 and 3 (reads of this peptide / all reads for the bait, averaged over …

Variant | screen value
chain 1 MPHLQRSPPDGQSFRS [chain 1 L1M] | 0.00036 average fractional NGS count over selection days 2 and 3 (reads of this peptide / all reads for the bait, averaged over …
chain 1 KPHLQRSPPDGQSFRS [chain 1 L1K] | 0.000567 average fractional NGS count over selection days 2 and 3 (reads of this peptide / all reads for the bait, averaged over …
chain 1 RPHLQRSPPDGQSFRS [chain 1 L1R] | 0.000257 average fractional NGS count over selection days 2 and 3 (reads of this peptide / all reads for the bait, averaged over …
chain 1 PPHLQRSPPDGQSFRS [chain 1 L1P] | 0.000357 average fractional NGS count over selection days 2 and 3 (reads of this peptide / all reads for the bait, averaged over …
chain 1 FPHLQRSPPDGQSFRS [chain 1 L1F] | 0.000588 average fractional NGS count over selection days 2 and 3 (reads of this peptide / all reads for the bait, averaged over …
chain 1 LPHLQRMPPDGQSFRS [chain 1 S7M] | 0.00193 average fractional NGS count over selection days 2 and 3 (reads of this peptide / all reads for the bait, averaged over …
chain 1 LPHLQRPPPDGQSFRS [chain 1 S7P] | 0.00153 average fractional NGS count over selection days 2 and 3 (reads of this peptide / all reads for the bait, averaged over …
chain 1 LPHLQRNPPDGQSFRS [chain 1 S7N] | 0.00621 average fractional NGS count over selection days 2 and 3 (reads of this peptide / all reads for the bait, averaged over …
chain 1 LPHLQRVPPDGQSFRS [chain 1 S7V] | 0.00627 average fractional NGS count over selection days 2 and 3 (reads of this peptide / all reads for the bait, averaged over …
chain 1 LPHLQRLPPDGQSFRS [chain 1 S7L] | 0.00604 average fractional NGS count over selection days 2 and 3 (reads of this peptide / all reads for the bait, averaged over …
chain 1 LPHLQRTPPDGQSFRS [chain 1 S7T] | 0.00126 average fractional NGS count over selection days 2 and 3 (reads of this peptide / all reads for the bait, averaged over …
chain 1 LPHLQRDPPDGQSFRS [chain 1 S7D] | 0.000477 average fractional NGS count over selection days 2 and 3 (reads of this peptide / all reads for the bait, averaged over …
chain 1 LPHLQRFPPDGQSFRS [chain 1 S7F] | 0.00476 average fractional NGS count over selection days 2 and 3 (reads of this peptide / all reads for the bait, averaged over …
chain 1 LPHLQRHPPDGQSFRS [chain 1 S7H] | 0.000827 average fractional NGS count over selection days 2 and 3 (reads of this peptide / all reads for the bait, averaged over …
chain 1 LPHLQRSPPDGVSFRS [chain 1 Q12V] | 0.000654 average fractional NGS count over selection days 2 and 3 (reads of this peptide / all reads for the bait, averaged over …
chain 1 LPHLQRSPPDGYSFRS [chain 1 Q12Y] | 0.000794 average fractional NGS count over selection days 2 and 3 (reads of this peptide / all reads for the bait, averaged over …
chain 1 LPHLQRSPPDGHSFRS [chain 1 Q12H] | 0.0118 average fractional NGS count over selection days 2 and 3 (reads of this peptide / all reads for the bait, averaged over …
chain 1 LPHLQRSPPDGNSFRS [chain 1 Q12N] | 0.00115 average fractional NGS count over selection days 2 and 3 (reads of this peptide / all reads for the bait, averaged over …
chain 1 LPHLQRSPPDGESFRS [chain 1 Q12E] | 0.000127 average fractional NGS count over selection days 2 and 3 (reads of this peptide / all reads for the bait, averaged over …

Variant | screen value
chain 1 LPHLQRSPPDGISFRS [chain 1 Q12I] | 0.000382 average fractional NGS count over selection days 2 and 3 (reads of this peptide / all reads for the bait, averaged over …
chain 1 LPHLQRSPPDGASFRS [chain 1 Q12A] | 0.00503 average fractional NGS count over selection days 2 and 3 (reads of this peptide / all reads for the bait, averaged over …
chain 1 LPHLQRSPPDGTSFRS [chain 1 Q12T] | 0.00582 average fractional NGS count over selection days 2 and 3 (reads of this peptide / all reads for the bait, averaged over …
chain 1 LPHLQRSPPPGQSFRS [chain 1 D10P] | 0.00059 average fractional NGS count over selection days 2 and 3 (reads of this peptide / all reads for the bait, averaged over …
chain 1 LPHLQRSPPEGQSFRS [chain 1 D10E] | 0.00381 average fractional NGS count over selection days 2 and 3 (reads of this peptide / all reads for the bait, averaged over …
chain 1 LPHLQRSPPTGQSFRS [chain 1 D10T] | 0.000156 average fractional NGS count over selection days 2 and 3 (reads of this peptide / all reads for the bait, averaged over …
chain 1 LPHLQRSPPIGQSFRS [chain 1 D10I] | 0.000221 average fractional NGS count over selection days 2 and 3 (reads of this peptide / all reads for the bait, averaged over …
chain 1 LPHLQRSPPQGQSFRS [chain 1 D10Q] | 0.00104 average fractional NGS count over selection days 2 and 3 (reads of this peptide / all reads for the bait, averaged over …
chain 1 LPHTQRSPPDGQSFRS [chain 1 L4T] | 0.000821 average fractional NGS count over selection days 2 and 3 (reads of this peptide / all reads for the bait, averaged over …
chain 1 LPHNQRSPPDGQSFRS [chain 1 L4N] | 0.000501 average fractional NGS count over selection days 2 and 3 (reads of this peptide / all reads for the bait, averaged over …
chain 1 LPHAQRSPPDGQSFRS [chain 1 L4A] | 0.00506 average fractional NGS count over selection days 2 and 3 (reads of this peptide / all reads for the bait, averaged over …
chain 1 LPHYQRSPPDGQSFRS [chain 1 L4Y] | 0.000355 average fractional NGS count over selection days 2 and 3 (reads of this peptide / all reads for the bait, averaged over …
chain 1 LPHDQRSPPDGQSFRS [chain 1 L4D] | 0.00145 average fractional NGS count over selection days 2 and 3 (reads of this peptide / all reads for the bait, averaged over …
chain 1 LPHPQRSPPDGQSFRS [chain 1 L4P] | 0.00111 average fractional NGS count over selection days 2 and 3 (reads of this peptide / all reads for the bait, averaged over …
chain 1 LPHSQRSPPDGQSFRS [chain 1 L4S] | 0.000672 average fractional NGS count over selection days 2 and 3 (reads of this peptide / all reads for the bait, averaged over …
chain 1 LPHWQRSPPDGQSFRS [chain 1 L4W] | 0.00434 average fractional NGS count over selection days 2 and 3 (reads of this peptide / all reads for the bait, averaged over …
chain 1 LPHEQRSPPDGQSFRS [chain 1 L4E] | 0.00039 average fractional NGS count over selection days 2 and 3 (reads of this peptide / all reads for the bait, averaged over …
chain 1 LPHGQRSPPDGQSFRS [chain 1 L4G] | 0.000123 average fractional NGS count over selection days 2 and 3 (reads of this peptide / all reads for the bait, averaged over …
